From patent publication US20120316118A1 (OSSTEMIMPLANT, published 2012)

Key:
[1] = target: T1, BMPR-IA (BMP receptor type IA) (UniProt P36894 24-152, limits assumed); experiment: ELISA: peptide coated on plate, BMPR-1A added, detected with anti-receptor antibody and HRP secondary, ABTS, absorbance at 595 nm
T1 construct: Soluble receptor added to the PEP7-coated plate; also called BMPR-1A; BMP-specific receptor
Protocol: (§1) PEP7 ([…]) was added to an ELISA plate and incubated at 4° C. for 12 hours. After PEP7 was coated on the plate, BMPR-1A or BMPR-II ([…]) was added thereto and reacted at room temperature for 2 hours, to obtain a PEP7-BMP receptor complex. A primary antibody specific for a BMP receptor (0.5 mg BMPR-1A, BMPR-11) was added to the complex and reacted at room temperature for 1 hour. A secondary antibody (BMPR-1A- or BMPRII-Fc Ab-HRP) was then added to the resulting mixture and reacted at room temperature for 1 hour.

[2] = target: T2, BMPR-II (BMP receptor type II) (UniProt Q13873 27-151, limits assumed); experiment: ELISA: peptide coated on plate, BMPR-II added, detected with anti-receptor antibody and HRP secondary, ABTS, absorbance at 595 nm
T2 construct: Soluble receptor added to the PEP7-coated plate; also called BMPR-11; BMP-II
T2 sequence (looked up): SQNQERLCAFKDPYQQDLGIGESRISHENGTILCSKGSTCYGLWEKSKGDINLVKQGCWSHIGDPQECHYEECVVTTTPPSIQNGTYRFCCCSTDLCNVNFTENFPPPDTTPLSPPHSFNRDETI
Protocol: as §1

T1 sequence (P36894 24-152 limits assumed): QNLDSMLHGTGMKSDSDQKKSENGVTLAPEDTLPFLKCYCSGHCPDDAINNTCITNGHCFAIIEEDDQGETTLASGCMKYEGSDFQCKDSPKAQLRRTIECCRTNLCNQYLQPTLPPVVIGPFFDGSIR

binding affinity relative to PEP 111 (ELISA absorbance) [1]: ~23 % higher than PEP 111
binding affinity relative to PEP 111 (ELISA absorbance) [2]: ~23 % higher than PEP 111
B1: PEP7 oligopeptide (SEQ ID NO:1) (peptide)
peptide: KIPKPSSVPTELSAISMLYL
notes: Synthetic peptide made by the Fmoc/tBu method, coated on the ELISA plate
